Target: HuCD7-TR (human CD7 containing an internal deletion of the 36 amino acid tandem repeat) (human) (UniProt P09564)
Assay: HuK12-Fc on transfected COS-1 cells, 125I anti-human Fc, phosphorimager

Chain of HuCD7-TR (human CD7 containing an internal deletion of the 36 amino acid tandem repeat) (human) (P09564 other isoform, or with tags, fused parts or gaps limits assumed): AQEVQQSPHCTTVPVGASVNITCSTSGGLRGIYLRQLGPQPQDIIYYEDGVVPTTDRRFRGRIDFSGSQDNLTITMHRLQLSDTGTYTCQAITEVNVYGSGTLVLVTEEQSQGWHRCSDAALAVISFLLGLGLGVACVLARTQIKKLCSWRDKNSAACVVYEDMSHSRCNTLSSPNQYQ

B1: human K12-Fc fusion protein (extracellular domain of human K12 fused to the Fc portion of human IgG1) (Fc fusion, not shown: a dimerising Fc or GST)
chain: QNEGWDSPICTEGVVSVSWGENTVMSCNISNAFSHVNIKLRAHGQESAIFNEVAPGYFSRDGWQLQVQGGVAQLVIKGARDSHAGLYMWHLVGHQRNNRQVTLEVSGAEPQSAPDTG
Question: Which fold less relative binding than to full length HuCD7 does the source give for B1 here?
Answer: The fold less relative binding than to full length HuCD7 was 10 fold.
